Laboratory results from patent publication US20090305254, “Method and Apparatus for Assaying Test Substance in Sample” (TECHNO MEDICA CO., LTD., published 2009).

B1: structure-switching thrombin aptamer with inserted hairpin (22-46 nt) (ssDNA)
DNA: CACTGGTAGGTTGGTGTGGTTGGACGACGAATTCATGATCACGTCCTTGGGGCCAGTG

Experiments:
[1] = target: T1, bovine serum albumin (BSA) (Bos taurus, UniProt P02769 P02769:25-607); test: control; PQQGDH-labeled aptamer, electrochemical bead capture assay; no BSA-concentration-dependent current; details: G4 with inserted hairpin (15-nt loop 27-41, 5-bp stem)
T1 sequence (P02769 25-607, one chain of several): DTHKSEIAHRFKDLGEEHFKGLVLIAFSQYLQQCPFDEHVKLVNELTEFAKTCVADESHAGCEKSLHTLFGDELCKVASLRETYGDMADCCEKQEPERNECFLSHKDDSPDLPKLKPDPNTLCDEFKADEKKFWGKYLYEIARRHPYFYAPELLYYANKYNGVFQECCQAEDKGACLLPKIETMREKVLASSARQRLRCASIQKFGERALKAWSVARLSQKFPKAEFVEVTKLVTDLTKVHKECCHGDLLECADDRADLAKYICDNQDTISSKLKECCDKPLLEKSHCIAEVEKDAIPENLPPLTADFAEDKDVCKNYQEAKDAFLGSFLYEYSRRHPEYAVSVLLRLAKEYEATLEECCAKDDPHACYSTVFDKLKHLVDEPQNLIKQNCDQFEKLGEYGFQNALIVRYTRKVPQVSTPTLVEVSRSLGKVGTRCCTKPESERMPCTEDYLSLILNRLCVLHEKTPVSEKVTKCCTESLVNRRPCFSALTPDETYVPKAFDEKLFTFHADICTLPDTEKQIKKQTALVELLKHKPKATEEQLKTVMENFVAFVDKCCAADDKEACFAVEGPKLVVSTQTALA
Procedure: Each sample solution (100 μL), which contained thrombin (0 to 10 μg/mL, […]) and the PQQGDH-labeled aptamer (0.1 U, approx. 10 μmol) prepared above in Procedure (2), was added to the DNA-immobilized carrier (10 μL) obtained above in Procedure (1), and the resulting mixture was stirred at room temperature for 15 minutes and then centrifuged. Using the thus-obtained supernatant (20 μL) and 10 mM MOPS (pH 7.2, 4 mL in total), which contained mPMS (1-methoxyphenazine methosulphate) (6 mM), PQQ (1 μM) and CaCl₂ (1 mM), as a reaction solution, a gold electrode as a working electrode and a platinum electrode as an opposing electrode, the response current was measured at an impression potential of +100 mV vs Ag/AgCl while adding glucose to a final concentration of 60 mM. The measurement was conducted at 25° C. With respect to each of sample solutions containing thrombin at 50 to 1,000 μg/mL ([…]), detection was similarly conduced by doubling the amounts of the DNA-immobilized carrier and ap-GDH to be employed.
A thrombin-concentration-dependent increase in current value was observed up to the level of 10 μg/mL. When BSA was used as a control in place of thrombin, the resultant current value was low, no BSA-concentration-dependent increase in current value was observed (FIG. 4(b)), and the detection limit was 100 ng/mL (2.7 nM) (FIG. 4(a)). […]

thrombin = thrombin (UniProt P00734;P00734 P00734:328-363,P00734:364-622); test: EMSA; 10 mM MOPS pH 7.4, room temp; thrombin-bound aptamer does not hybridize FITC 15-mer complementary strand; PQQGDH-labeled aptamer bead assay detection limit 100
[2] = target: T1, bovine serum albumin (BSA); test: SPR; control; PBS with 1 mM MgCl2 pH 7.4; also no response current at 1 uM in electrochemical assay; details: label: biotin (SPR); hairpin
Procedure: Biotinylated CaAp-1 was immobilized on an SPR chip (SA chip), and variations in SPR signal when IgE solutions of various concentrations (100 μL) were fed were observed. Upon measurement of interaction, an Mg2+-containing PBS buffer (138 mM NaCl, 2.7 mM KCl, 8.1 mM NaHPO₄, 1.1 mM KHPO₄, 1 mM MgCl₂, pH 7.4) was used, and the flow rate was set at 20 μL/min. Observed as a control were variations in SPR signal when bovine serum albumin (BSA) solutions of various concentrations were fed.
To beads (20 μL; solid amount: 10 μL) with “NEUTRAVIDIN” (trade name) immobilized as a biotin-binding substance thereon, the biotin-modified 14-mer capture oligonucleotide (0.5 nmol) was added. With 100 mM phosphate buffer and 150 mM […] (pH7.2), the total volume was adjusted to 500 μL. The resultant mixture was stirred overnight at 4° C. to immobilize the 14-mer capture oligonucleotide on the beads. […] Using the supernatant (20 μL) and 10 mM MOPS (pH 7.2), which contained CaCl₂ (1 mM) and PQQ (1 μM), as a reaction solution (total volume: 4 mL), a gold electrode as a working electrode and a platinum electrode as an opposing electrode, the response current was measured at an impression potential of +100 mV vs Ag/AgCl while adding glucose to a final concentration of 60 mM. […]

| Binder | binding result [1] | binding result (thrombin) | binding result [2] |
| --- | --- | --- | --- |
| B1 | no binding | binds | – |
| TCACGTTTATCCGTCCCTCCTAGTGGCGTGA (ssDNA) [CaAp-1 IgE-binding aptamer] | – | – | no binding |
